Experimental findings from PMC7835363 are described below.

The target of assay [1] is Schizosaccharomyces japonicus Yop1, full length, with a C-terminal SBP tag (Schizosaccharomyces japonicus) (UniProt B6K529). The assay is described as follows: SEC-MALS; in the detergent DDM; 20 mM Tris/HCl pH 7.5, 100 mM NaCl, 0.03% DDM; protein 0.2-1 mg/ml; protein conjugate model. On the technique in general: Size exclusion chromatography separates by hydrodynamic size, large species first.

The target of assay [2] is Yop1F65Bpa (S. japonicus Yop1 with the photoreactive probe Bpa at F65 in TM2) (Schizosaccharomyces japonicus) (UniProt B6K529). The assay is described as follows: cross-linking; photo-cross-linking through Bpa; purified protein reconstituted into liposomes of S. cerevisiae lipid extract at a protein:lipid molar ratio of 1:200; UV for 30 min on an ice-cold block; SDS-PAGE and Coomassie-blue staining.

The target is the same in assay [3]. The assay is described as follows: cross-linking + SEC; Yop1F65Bpa irradiated in liposomes, then membranes solubilized in DDM and run on SEC.

As usually defined, the stoichiometry N is a count of units in the complex or per binding partner. In assay [1], “Schizosaccharomyces japonicus Yop1, full length, with a C-terminal SBP tag (from UniProt B6K529 1-191) (natural protein)” displayed a stoichiometry N of 2.
Take “Yop1F65Bpa (S. japonicus Yop1 with the photoreactive probe Bpa at F65 in TM2) (from UniProt B6K529 1-191) (natural protein)”: the percent of monomers cross-linked into dimers in assay [2] is above 75%. The stoichiometry N in assay [3] was 2.
